{
  "source": "patent US7144731B2",
  "about": "“SCF antibody compositions and methods of using the same” (Amgen Inc., priority 1989, dated 2006)",
  "key": {"[1]": {"system": "peripheral blood mononuclear cells of normal donors", "test": "BFU-E assay, peripheral blood of normal donors", "assay_type": "cell-based", "settings": "Homo sapiens, PBMC; in the presence of the three concentrations of HuSCF (10, 100, 1000 ng/ml); read-out: IC50 (fifty percent inhibitory concentration) of zidovudine for BFU-E", "procedure": "Peripheral blood mononuclear cells were isolated from leukopaks and peripheral blood using ficoll-hypaque sedimentation followed by extensive washing with Hank's Balance Salt Solution (HBSS). Blood cells were enumerated and viability ascertained by trypan blue dye exclusion.\nAssays for BFU-E were performed in a standard protocol using normal human bone marrow as the control. Heparinized blood was diluted with an equal volume of HBSS (GIBCO, Grand Island, N.Y.), layered over Ficol-Paque (Pharmacia, Piscataway, N.J.) and centrifuged at 400 g for 30 minutes at room temperature. Light density cells (s.g. <1.077) were collected and washed twice in HBSS. Cells were resuspended in Iscove's Medium with 10% Fetal Bovine Serum (GIBCO, Grand Island, N.Y.) at a concentration of 1×10^7/ml. […] Erythroid burst colonies were scored after 14 days of culture in a humidified atmosphere containing 5% CO2. Each assay was done in duplicate and colonies with >50 cells present on day 14 with hemoglobinization were scored as BFU-E.\nThe 50% inhibitory concentration for zidovudine was calculated by expressing the mean of four determinations of BFU-E for each level of zidovudine and huSCF as a percentage of control (no added zidovudine). […] The 50% inhibitory concentration was calculated by interpolation and the value used as the exponent for the base of 10. […]"}, "human bone marrow": {"system": "human bone marrow", "test": "Human bone marrow colony assay", "assay_type": "cell-based", "settings": "agar colony assay, factors alone or combined", "procedure": "The cDNA of human SCF corresponding to amino acids 1–162 obtained by PCR reactions outlined in Example 3D, was expressed in COS-1 cells as described for the rat SCF in Example 4. COS-1 supernatants were assayed on human bone marrow as well as in the murine HPP-CFC and MC/9 assays. […] The culture conditions of the assay were as follows: human bone marrow from healthy volunteers was centrifuged over Ficoll-Hypaque gradients (Pharmacia) and cultured in 2.1% methyl cellulose, 30% fetal calf serum, 6×10^−5 M 2-mercaptoethanol, 2 mM glutamine, ISCOVE'S medium (GIBCO), 20 U/ml EPO, and 1×10^5 cells/ml for 14 days in a humidified atmosphere containing 7% O2, 10% CO2, and 83% N2. Only those colonies of 0.2 mm in size or larger are indicated.\nRecombinant human SCF was tested in agar colony assays on human bone marrow in combination with other growth factors as described above."}, "normal human bone marrow": {"system": "normal human bone marrow", "test": "Human CFU-GM assay", "assay_type": "cell-based", "settings": "average of triplicate cultures; SCF = COS-1 supernatant 4 days after transfection"}, "HIV": {"system": "HIV", "settings": "other studies; cited from earlier work"}, "KG-1": {"system": "KG-1", "test": "KG-1 soft agar cloning assay", "assay_type": "cell-based, human", "settings": "50 μl assayed (5 ng/ml)", "procedure": "Another activity of recombinant human SCF is the ability to cause proliferation in soft agar of the human acute myelogenous leukemia (AML) cell line, KG-1 (ATCC CCL 246). COS-1 supernatants from transfected cells were tested in a KG-1 agar cloning assay [Koeffler et al., Science, 200, 1153–1154 (1978)] essentially as described except cells were plated at 3000/ml."}, "[2]": {"target": "T1, SCF receptor (OCIM1 plasma membrane) (Homo sapiens, UniProt P10721)", "T1 construct": "endogenous in cells; host or cells: OCIM1 human erythroleukemic cells, plasma membrane preparation", "test": "SCF radioreceptor assay", "assay_type": "binding", "settings": "E. coli derived", "procedure": "OCIM1 cells, [Papayannopoulou et al., Blood 72:1029–1038 (1988)] are a human erythroleukemic cell line expressing many human SCF receptors per cell. These cells are grown in Iscove's Modified Dulbecco's Medium, 10% FBS, and 1× glutamine and passaged 3 times a week to 1×10^5 cells/ml.\nPreparation of the OCIM1 plasma membrane is as follows with all steps performed on ice.\nFirst, 40 T175 flasks of cells were grown-up in OCIM1 culture medium, for a total of 1.9×10^9 […]. The conditioned medium and 1 mM Phenyl Methyl Sulfonyl Fluoride (PMSF) protease inhibitor, was spun down in 8×250 ml tubes at 1000 rpm for 10 minutes at 4° C. Cells were washed with PBS and repelleted in 4×50 ml centrifuge tubes at 1000 rpm for 10 minutes at 4° C. Cells were resuspended in 20 ml ice cold PBS with glucose sodium pyruvate (Gibco Cat #310-4287). The 20 ml cell solution was put into a pre-pressurized, pre-chilled (4° C.) “cell bomb” designed to lyse the cells. Cells were pressurized at 400–650 PSI for 10 minutes to establish equilibrium. When the pressure is released cell lysis occurs.\nAt this point the cells were checked for the percentage of cell lysis. 90% lysis was common. The cell suspension was resuspended in 80 mls sucrose buffer (0.25M sucrose, 10 mM Tris, 1 mM EDTA in double distilled (dd) H2O, filtered through a 0.45 u filter, pH 7.0) and divided between two 40 ml screwcap tubes. Tubes were spun at 5900 RPM for 10 minutes in a Beckman J2-21 centrifuge, JA-20 rotor at 4° C. The supernatants were saved and spun one more time as above to further remove any unwanted material. Supernatants were saved and distributed equally into 2 nalgene 40 ml centrifuge tubes. These supernatants were centrifuged at 16,000 RPM 4° C. for 30 min. in J2-21 centrifuge, JA-20 rotor. These supernatants were discarded being careful to save pellets. Each pellet was resuspended in sucrose buffer so there were 20 mls per tube in 4×36 ml plastic ultracentrifuge tubes. Using a 20 ml syringe and a large trochar, the solution was carefully underlayered in each tube with ice cold 36% sucrose solution (36.1 g sucrose/100 mls ddH2O), bringing the level of the liquid to within 2 mm of the top of the tube. Without disturbing the interface, each tube was carefully placed into each of […] titanium ultracentrifuge tubes. Tubes were centrifuged at 27,000 RPM, 4° C. for 75 minutes in an ultracentrifuge. These tubes were carefully removed from the rotor and from titanium buckets, placed in a rack with the 36% sucrose interface visible. The membraneous material at the interface was collected with a pasteur pipet and transfered into 2 clean nalgene 40 ml centrifuge tubes. Volume was brought up to 40 mls with ice cold sucrose buffer. Tubes were balanced and centrifuged as before at 5900 RPM in J2-21 centrifuge. […]"}, "UT-7 cells": {"system": "UT-7 cells", "test": "UT-7 ^3H-thymidine uptake assay", "assay_type": "cell-based, human", "settings": "E. coli derived", "procedure": "UT-7 cells are a human megakaryocyte, huGM-CSF responsive cell line obtained from John Adamson, New York Blood Center, New York, N.Y. UT-7 cells were cultured in Iscove's Modified Dulbecco's Medium, 10% FBS, 1× glutamine, 5 \\g/ml huGM-CSF. Cells are passaged twice a week at 1×10^5 cells/ml.\nCells were washed twice in phosphate buffered saline (PBS) and resuspended in RPMI medium with 4% FBS and glutamine penicillin streptomycin (GPS) (Irvine Scientific Cat No. 9316 used at 1% volume per volume) at 4×10^4 cells/ml before use. Human SCF along with specific samples were added to 4000 cells/well in 96 well plates and were cultured for 72 hrs. 0.5 uCi/well of ^3H-Thymidine was then added to each plate, plates were harvested and counted 4 hours later."}, "normal baboons": {"system": "normal baboons", "test": "In vivo activity in normal primates"}, "[3]": {"system": "bone marrow from patients with DBA", "test": "BFU-E culture of Diamond-Blackfan anemia marrow", "assay_type": "cell-based, human", "from_the_text": "(§1) Another bone marrow failure disorder which is responsive to SCF is Diamond-Blackfan anemia (DBA) or congenital pure red cell aplasia. This congenital abnormality results in a selective defect in the production of red blood cells and often results in chronic transfusion dependency. […] This pattern of response reflects an intrinsic defect in the receptor for SCF (c-kit) on the progenitor cell. In either case (abnormal production of SCF by the microenvironment or decreased stimulation of the hematopoietic progenitor by SCF) SCF overcomes the block to hematopoiesis which characterizes bone marrow failure syndromes such as DBA."}, "control marrow": {"system": "control marrow", "test": "BFU-E culture of control marrow", "assay_type": "cell-based, human", "settings": "with EPO", "from_the_text": "as §1"}, "Lewis rats": {"system": "Lewis rats", "test": "SCF and G-CSF in Lewis rats", "assay_type": "in vivo, rat", "procedure": "Quantitative peripheral blood and bone marrow differentials were performed at various timepoints as previously described [Hulse, Acta Haematol. […] J. Physiol. […] Histologic examination of the spleen was performed with Bouin's-fixed paraffin-embedded sections stained with hematoxylin-and-eosin as well as by the Giemsa method. The numbers of normoblasts, megakaryocytes, and mast cells per 400× or 1000× high power field (HPF) in the spleen was quantitated by counting the number of each cell type in randomly selected fields of the red pulp. Increases in circulating numbers of neutrophils over extended time periods were when so stated calculated by planimetry as previously described. […] Data is expressed as the mean plus-or-minus one standard deviation and statistical analysis is by the unpaired t-test."}, "[4]": {"system": "dog with cyclic neutropenia", "test": "Canine cyclic neutropenia", "assay_type": "in vivo", "settings": "rcanineSCF 100 mg/kg/day s.c. over several weeks", "procedure": "Cyclic neutropenia, in particular, is a defect in the regulation of stem cell division since other lineages (e.g., platelet, erythrocyte and monocyte) are also effected. […] A typical dog with cyclic neutropenia was treated with rcanineSCF (recombinant canine SCF) at […] subcutaneously over several weeks. […] Thus, SCF is useful in treating a variety of bone marrow failure syndromes, either alone or in combination with other hematopoietic growth factors."}, "[5]": {"settings": "6 hours after a single injection"}},
  "data": [
    {"molecule": "Cc1cn([C@H]2C[C@H](N=[N+]=[N-])[C@@H](CO)O2)c(=O)[nH]c1=O", "note": "[zidovudine]", "values": [
      {"measurement": "IC50", "setting": "[1]", "result": "2.65 to 1380", "unit": "µM"}
    ]},
    {"molecule": "GM-CSF: human granulocyte-macrophage colony stimulating factor", "values": [
      {"measurement": "Colony #/10^5 cells (14 Days)", "setting": "human bone marrow", "result": "14 ± 2"},
      {"measurement": "Colony #/100,000 cells (±SEM)", "setting": "normal human bone marrow", "result": "7 ± 1"},
      {"measurement": "replication of HIV in partially purified primary peripheral blood monocytes", "setting": "HIV", "result": "significantly increase replication of HIV"},
      {"measurement": "Colony #/3000 Cells ± SD", "setting": "KG-1", "result": "14 ± 5"}
    ]},
    {"molecule": "Human SCF^1-165: recombinant human [Met^−1]SCF^1-165 expressed in E. coli", "values": [
      {"measurement": "competition with binding of human [^125I][Met^−1]SCF^1-164", "setting": "[2]", "result": "compete equally well"},
      {"measurement": "stimulation of UT-7 proliferation, comparison", "setting": "UT-7 cells", "result": "equally active"},
      {"measurement": "in vivo biological activity in primates compared with human SCF^1-164", "setting": "normal baboons", "result": "same in vivo biological activity"}
    ]},
    {"molecule": "SCF: stem cell factor added to DBA and control marrow cultures; form not specified", "values": [
      {"measurement": "increase in the frequency of BFU-E", "setting": "[3]; majority of patients, ≤10 ng/ml SCF, with EPO", "result": "approximately 3 fold"},
      {"measurement": "SCF concentration giving an increase in the frequency of BFU-E", "setting": "[3]; other group of patients with DBA", "result": "greater than or equal to 50 ng/ml"},
      {"measurement": "increase in frequency of BFU-E", "setting": "control marrow", "result": 1.5, "unit": "fold"}
    ]},
    {"molecule": "G-CSF: human granulocyte colony-stimulating factor (protein, UniProt P09919 31-207, looked up) Granulocyte …: TPLGPASSLPQSFLLKCLEQVRKIQGDGAALQEKLVSECATYKLCHPEELVLLGHSLGIPWAPLSSCPSQALQLAGCLSQLHSGLFLYQGLLQALEGISPELGPTLDTLQLDVADFATTIWQQMEELGMAPALQPTQGAMPAFASAFQRRAGGVLVASHLQSFLEVSYRVLRHLAQP", "values": [
      {"measurement": "Colony #/10^5 cells (14 Days)", "setting": "human bone marrow", "result": "32 ± 3"},
      {"measurement": "time of peak neutrophilia after a single injection", "setting": "Lewis rats; 25 ug/rat i.v.", "result": 12, "unit": "h"},
      {"measurement": "decrease in mature marrow neutrophils vs carrier control", "setting": "Lewis rats; [5]", "result": 44, "unit": "%"},
      {"measurement": "mature marrow neutrophils", "setting": "Lewis rats; [5]", "result": "5.55±0.5 ×10^6 PMN/humerus"},
      {"measurement": "myeloblasts and promyelocytes in marrow vs carrier controls", "setting": "Lewis rats; 6 hours after single injection", "result": "significant increase in myeloblasts and promyelocytes"},
      {"measurement": "mature neutrophils in bone marrow", "setting": "Lewis rats; 24 hours after daily injection for one week", "result": "28.5±2.1 ×10^6 PMN/humerus"},
      {"measurement": "circulating neutrophils", "setting": "Lewis rats; daily 25 ug/rat for one week, 24 hours after the last injection", "result": "10.6±3.6 ×10^3 PMN/mm^3"},
      {"measurement": "morbidity and thrombocytopenia", "setting": "Lewis rats; daily for one week", "result": "None of the rats"},
      {"measurement": "circulating neutrophils", "setting": "Lewis rats; daily for one week, 12 hours after the last (seventh) injection", "result": "25.3±0.3 ×10^3 PMN/mm^3"},
      {"measurement": "number of megakaryocytes in the spleen", "setting": "Lewis rats; per 400× HPF, daily for one week", "result": "2.0±1.1"},
      {"measurement": "number of normoblasts in the spleen", "setting": "Lewis rats; per 1,000× HPF, daily for one week", "result": "0±0"},
      {"measurement": "neutrophil cycling", "setting": "[4]", "result": "increases the frequency and amplitude of neutrophil cycling, but does not eliminate it"},
      {"measurement": "Colony #/100,000 cells (±SEM)", "setting": "normal human bone marrow", "result": "24 ± 1"}
    ]}
  ]
}
